Biological target: T1, cytoplasmic domain of Bacillus subtilis anti-sigma RsiW (residues 1-80), reduced, zinc-bound (B. subtilis 168 strain, UniProt Q45588 1-80)
T1 construct: RsiW, anti-sigma-W factor of Bacillus subtilis 168, cytoplasmic domain, residues 1-80; Coordinates one zinc ion through C3, H30, C34 and C37 (CHCC motif); The Hisx6-thioredoxin tag was removed with TEV protease after the first IMAC step; also called RsiW_(cyto); RsiWcyto; not shown: His6, N-terminal, cleaved; thioredoxin, N-terminal, cleaved
T1 sequence (looked up): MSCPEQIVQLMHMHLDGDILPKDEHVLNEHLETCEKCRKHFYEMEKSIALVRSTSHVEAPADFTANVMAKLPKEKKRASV
Assay: SEC-MALS; purified SigW/RsiWcyto complex injected into a Superdex200 analytical column with inline DAWN HELEOS MALLS and Optilab rEX refractive index detectors; molecular weight of the complex approximately 31.5 kDa
Settings: both partners purified

B1: Bacillus subtilis SigW (residues 1-187) (natural protein, B. subtilis 168 strain, UniProt Q45585 1-187, looked up)
chain: MEMMIKKRIKQVKKGDQDAFADIVDIYKDKIYQLCYRMLGNVHEAEDIAQEAFIRAYVNIDSFDINRKFSTWLYRIATNLTIDRIRKKKPDYYLDAEVAGTEGLTMYSQIVADGVLPEDAVVSLELSNTIQQKILKLPDKYRTVIVLKYIDELSLIEIGEILNIPVGTVKTRIHRGREALRKQLRDL
notes: SigW, ECF (group IV) sigma factor of Bacillus subtilis 168, residues 1-187; domains sigmaW2 (residues 3-95) and sigmaW4 (residues 125-187) joined by a disordered loop (96-125); No tag on SigW itself (cloned in MCS2 of pET-DUET1); it is purified through the His-tagged RsiWcyto; A selenomethionine-labelled complex (E. coli B834 (DE3)) was used for phasing only; also called sigma factor SigW; ECF …
stoichiometry N: 1 SigW per RsiWcyto
